According to article PMC6344858:

What was measured:
[1] = molecular target: PfoI restriction endonuclease, wild type (Pseudomonas fluorescens biovar 126); assay: SEC; analytical gel filtration on Superdex75 10/300; 10 mM Tris-HCl pH 7.5, 5 mM calcium chloride, with 150 mM NaCl ('low salt') or 300 mM KCl ('high salt'); 13.8 uM PfoI dimer with or without oligoduplex SP14-GF (1:1.2)
[2] = molecular target: PfoI restriction endonuclease, wild type (Pseudomonas fluorescens biovar 126); assay: dynamic light scattering; PfoI-SP14 complex at various concentrations; Malvern Zetasizer uV; MW estimated from the apparent particle diameter

- stoichiometry N [1]: 2
- stoichiometry N [2]: 2
Substance: PfoI restriction endonuclease, wild type (enzyme)
